In patent US20030152946A1, “Bh4-fused polypeptides” (priority 1999, published 2003):

How the values were obtained:
Rat liver VDAC = target: T1, Rat liver VDAC (Rattus norvegicus, UniProt Q9Z2L0); experiment: VDAC activity: sucrose uptake into VDAC liposomes (liposomal swelling, light scatter at 520 nm); format: biochemical; conditions: for Inhibition of VDAC activity (VDAC-mediated sucrose uptake): 20 μg/ml protein or polypeptide
T1 construct: Rat liver VDAC was purified in accordance with a report made by Shimizu et al; from tissue; host or cells: rat liver (mitochondria)
T1 sequence (Q9Z2L0 whole entry): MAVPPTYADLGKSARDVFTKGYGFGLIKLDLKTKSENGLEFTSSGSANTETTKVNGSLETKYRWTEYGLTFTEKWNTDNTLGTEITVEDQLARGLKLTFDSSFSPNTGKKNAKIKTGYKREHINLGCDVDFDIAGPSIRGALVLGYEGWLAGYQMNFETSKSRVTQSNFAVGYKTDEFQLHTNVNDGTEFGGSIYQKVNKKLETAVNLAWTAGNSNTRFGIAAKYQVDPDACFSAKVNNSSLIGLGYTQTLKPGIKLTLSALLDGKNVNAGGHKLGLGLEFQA
Description: Purified VDAC was reconstituted in small unilamellar vesicles by the ultrasonic freeze-thaw procedure described in a report made by Shimizu et al. [Nature, 399, 483-487 (1999)]. Sucrose uptake experiment was performed by assessing liposomal swelling.
Liposomes produced at pH 5.2 were incubated at 25° C. in 1 ml of liposome buffer together with rBcl-xL, rΔ21, rBax or a polypeptide for 3 minutes. Here, acidic pH was a required condition for efficient uptake of rBcl-xL and rBax into the liposomes. Thereafter, sucrose was added up to a concentration of 50 mM to the mixture, and the liposomal swelling was assessed by the decrease in light scatter at a wavelength of 520 nm using a spectrophotometer (F-4500, manufactured by Hitachi, Ltd.). Sucrose uptake was also estimated from ^14C-sucrose uptake as described in the report made by Shimizu et al. [Nature, 399, 483-487(1999)].
Next, the functional role of the BH4 domain in the regulation of VDAC activity was examined. VDAC activity was measured by assessing sucrose uptake into VDAC-containing liposomes, using the two procedures: a method with radiolabeled sucrose described in a report made by Shimizu et al. [Nature, 399, 483-487 (1999)], and a method for measuring a sucrose uptake-dependent liposomal swelling that was monitored by decrease in light scatter. Since sucrose-uptake-dependent liposomal swelling was confirmed by microscopic observation or flow cytometric analysis, it is thought that the liposomal swelling is based on the rapid influx of sucrose and water through large VDAC pores which overwhelmed osmosis-dependent efflux of water.

VDAC = target: T2, VDAC (Rattus norvegicus, UniProt Q9Z2L0); experiment: Co-immunoprecipitation with VDAC and Western blot; format: binding; conditions: 20 μg/ml protein or polypeptide
T2 construct: from tissue; host or cells: rat liver (purified VDAC, or isolated mitochondria)
T2 sequence (Q9Z2L0 whole entry): as above
Description: Purified VDAC (20 μg/ml) was incubated with recombinant BCl-xL (rBcl-xL) and recombinant Δ21 (rΔ21), and the resulting mixture was immunoprecipitated with anti-Bcl-xL (L19) antibody and normal rabbit IgG. In order to detect interactions between polypeptide and VDAC, isolated mitochondria (1 mg) were incubated with 20 μg of Bcl-xL N-terminal polypeptide or Bcl-xL C-terminal polypeptide for 5 minutes. Thereafter, the resulting mitochondria were pelleted, washed, and suspended in a lysis buffer (10 mM HEPES, pH 7.4, 142.5 mM KCl, 5 mM MgCl2, 1 mM EGTA and 0.5% NP40) in the presence of proteinase inhibitors (0.1 mM p-APMSF, 10 μg/ml aprotinin, 1 μg/ml chymostatin, 1 μg/ml leupeptin, 1 μg/ml antipain, 1 μg/ml pepstatin), followed by ultrasonic disruption. Immunoprecipitation was carried out with anti-Bcl-x polyclonal antibodies corresponding to the polypeptides used. Co-immunoprecipitation of VDAC was detected by Western blotting using an anti-VDAC antibody.

HeLa cells = experiment: VP16-induced apoptosis in HeLa cells in the presence of TAT-BH4 polypeptide; format: cell-based, human; conditions: VP16 for 24 hours, polypeptide in the culture medium
Description: FIG. 17 is a diagram showing the results for evaluating the effect of TAT-BH4 polypeptide on VP16-induced apoptosis. Cells were treated with VP16 at the indicated concentrations for 24 hours in the presence of 100 μg/ml TAT-BH4 polypeptide (□) or TAT polypeptide (∘) or absence of polypeptide (●) and then stained with Hoechst 33342. Apoptotic cell death was determined by the morphology of nuclei using a fluorescence microscope. Data shown are from one of three independent experiments.
FIG. 18 is a diagram showing the results for evaluating the dose-dependent inhibition of VP16-induced apoptosis by TAT-BH4 polypeptide. […] Apoptotic cell death was determined in the same manner as in FIG. 17.
The inhibition and promotion of apoptosis can be evaluated by, for instance, the following method, without being limited thereto.
Therefore, in order to facilitate the transport of the BH4 polypeptide into cells, the above-mentioned TAT-BH4 polypeptide of 30 amino acid residues was synthesized, the polypeptide comprising N-terminal eosin-conjugated cystein and the PTD of HIV TAT protein fused to the Bcl-xL BH4 polypeptide. HeLa cells were treated with 200 μM VP16 in the presence of the TAT-BH4 polypeptide, and then observed by an optical phase-contrast microscope and a fluorescence microscope, respectively. […]

Bax = target: T3, Bax (Homo sapiens, UniProt Q07812); experiment: Binding of BH4 polypeptide to Bax
T3 construct: made in house
T3 sequence (Q07812 whole entry): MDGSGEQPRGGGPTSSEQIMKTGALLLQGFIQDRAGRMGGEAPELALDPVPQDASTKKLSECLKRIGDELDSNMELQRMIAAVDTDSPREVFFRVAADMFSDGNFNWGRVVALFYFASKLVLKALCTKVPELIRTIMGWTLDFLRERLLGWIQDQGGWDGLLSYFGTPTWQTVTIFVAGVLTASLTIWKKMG

Rat liver mitochondria [1] = experiment: Ca2+-induced ΔΨ loss in isolated mitochondria (Rhodamine 123 uptake); format: biochemical; conditions: for Inhibition of Ca2+-induced mitochondrial ΔΨ loss: mitochondria 1 mg/ml, 40 μM Ca2+, 20 μg/ml protein or polypeptide
Description: (§1) Rat liver mitochondria (1 mg protein/ml) isolated in accordance with a report made by Shimizu et al. [Oncogene, 13, 21-29(1996)] were incubated at 25° C. in a medium containing 0.3 M mannitol, 10 mM HEPES/K^+ (pH 7.4), 0.1% fatty acid-free BSA, 1 mM potassium phosphate, 40 μM CaCl2 and 4.2 mM succinate for energization in the presence or absence of recombinant proteins.
ΔΨ was assessed by measuring the uptake of Rhodamine 123 (Rh123) as previously described by Shimizu et al. [Oncogene, 13, 21-29(1996)].
Isolated mitochondria (1 mg/ml) were incubated with 20 μg/ml Bcl-xL BH4 polypeptide in the presence of 40 μM Ca^2+, and thereafter Rhodamine 123 intensity was continuously monitored. The results are shown in the left panel of FIG. 14. In addition, isolated mitochondria (1 mg/ml) were incubated with 20 μg/ml BH4 polypeptide of Bcl-xL and any of various mutant polypeptides in the presence of 40 μM Ca for 15 minutes, and thereafter ΔΨ was measured by Rhodamine 123 intensity. The results are shown in the right panel of FIG. 14.

Rat liver mitochondria [2] = experiment: Ca2+-induced cytochrome c release from isolated mitochondria (Western blot); format: biochemical; conditions: mitochondria 1 mg/ml, 40 μM Ca2+, 20 μg/ml protein
Description: as §1
The cytochrome c release was evaluated by centrifuging the above-mentioned mitochondria, re-suspending the resulting pellets in an RIPA buffer to give mitochondria suspension, and subjecting the mitochondria suspension and supernatant to Western blot analysis using anti-cytochrome c antibodies.

[3] = target: rat liver VDAC (voltage-dependent anion channel) (rat, UniProt Q9Z2L0 2-283); experiment: cell-based or functional assay
Sequence of rat liver VDAC (voltage-dependent anion channel) (Q9Z2L0 2-283): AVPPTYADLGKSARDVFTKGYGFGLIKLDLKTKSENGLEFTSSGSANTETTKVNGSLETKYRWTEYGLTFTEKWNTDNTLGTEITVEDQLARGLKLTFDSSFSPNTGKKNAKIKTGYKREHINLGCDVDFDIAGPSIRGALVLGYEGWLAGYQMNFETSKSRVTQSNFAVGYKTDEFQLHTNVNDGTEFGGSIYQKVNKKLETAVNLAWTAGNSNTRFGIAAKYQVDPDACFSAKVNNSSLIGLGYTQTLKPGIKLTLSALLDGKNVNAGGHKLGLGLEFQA

Molecule: FL1213GG: F12L13 mutant of human Bcl-xL BH4 polypeptide (FIG. 13) (SNRELVVDGGSYKLSQKGYS) [reference compound]
- Inhibition of VDAC activity (VDAC-mediated sucrose uptake) (Rat liver VDAC; VDAC liposomes, 50 mM sucrose): did not inhibit

Molecule: L17W: Bcl-xL BH4 polypeptide with one amino acid substitution at L17 (SNRELVVDFLSYKWSQKGYS) [Polypeptide L17W, reference compound]
- VDAC inhibitory activity as compared to VDAC inhibition of the normal BH4 polypeptide (fraction in words) (Rat liver VDAC; 20 μg/ml polypeptide, 50 mM sucrose): about one-half

Molecule: LV89GG: L8V9 mutant of human Bcl-xL BH4 polypeptide (FIG. 13) (SNREGGVDFLSYKLSQKGYS) [reference compound]
- Inhibition of VDAC activity (VDAC-mediated sucrose uptake) (Rat liver VDAC; VDAC liposomes, 50 mM sucrose): did not inhibit

Molecule: LV89VF: L8V9 mutant of human Bcl-xL BH4 polypeptide (FIG. 13) (SNREVFVDFLSYKLSQKGYS) [reference compound]
- Inhibition of VDAC activity (VDAC-mediated sucrose uptake) (Rat liver VDAC; VDAC liposomes, 50 mM sucrose): did not inhibit

Molecule: N-terminal fragment (amino acid nos: 2 to 9) of Bcl-xL: N-terminal (amino acid nos: 2 to 19) polypeptide of Bcl-xL purchased from Santa Cruz Biotechnology (SQSNRELVVDFLSYKLSQ) [reference compound]
- Interaction with VDAC (co-immunoprecipitation) (VDAC): detected, although to a lesser extent

Molecule: SNRELVVDFLSYKLSQKGYS (listed as Homo sapiens) [BH4 polypeptide, amino acid nos: 4 to 23 of human Bcl-xL]
- Closure of VDAC (Rat liver VDAC; 20 μg/ml BH4 polypeptide): complete closure
- Inhibition of rBax-induced enhancement of VDAC activity (Rat liver VDAC; VDAC liposomes, 5 μg/ml rBax, 50 mM sucrose): inhibited the rBax-induced enhancement of VDAC activity in a dose-dependent manner
- Inhibition of VDAC activity (VDAC-mediated sucrose uptake) (Rat liver VDAC; VDAC liposomes, 50 mM sucrose): inhibited the VDAC activity in a concentration-dependent manner
- Inhibition of VDAC activity (VDAC-mediated sucrose uptake) (Rat liver VDAC; VDAC liposomes, 50 mM sucrose, listed as BH4 polypeptide of BCl-xL): significantly inhibits
- Inhibition of VP16-induced apoptosis (HeLa cells): no effect
- Binding to Bax (Bax): did not bind
- Molar concentration needed to inhibit ΔΨ loss and VDAC activity, relative to recombinant Bcl-xL (Rat liver mitochondria [1]; applies to Ca2+-induced ΔΨ loss and VDAC activity): about 25 fold
- Inhibition of Ca2+-induced mitochondrial ΔΨ loss (Rat liver mitochondria [1]): significantly inhibits

Molecule: TGYDNREIVMKYIHYKLSQRGYEW (listed as Homo sapiens) [BH4 polypeptide derived from Bcl-2, amino acid nos: 7 to 30 of human Bcl-2]
- Inhibition of VDAC activity (VDAC-mediated sucrose uptake) (Rat liver VDAC; VDAC liposomes, 50 mM sucrose): inhibited VDAC activity

Molecule: VAQDTEEVFRSYVFYRHQQEQEAE [polypeptide derived from Bak, reference compound]
- Inhibition of VDAC activity (VDAC-mediated sucrose uptake) (Rat liver VDAC; VDAC liposomes, 50 mM sucrose): inactive

Molecule: eosin-C-RKKRRQRRR [TAT-only polypeptide, reference compound]
- Inhibition of VP16-induced apoptosis (HeLa cells): did not significantly inhibit

Molecule: rBcl-xL: recombinant human Bcl-xL expressed as GST fusion in Escherichia coli, GST cleaved with thrombin
- Inhibition of VDAC activity (VDAC-mediated sucrose uptake) (Rat liver VDAC; VDAC liposomes, 50 mM sucrose): inhibited
- Effect on VDAC-free liposomes (Rat liver VDAC; VDAC-free liposomes): did not show any significant effect
- Inhibition of Ca2+-induced cytochrome c release (Rat liver mitochondria [2]): inhibited
- Interaction with VDAC (co-immunoprecipitation) (VDAC): interacted with VDAC to a similar level
- Inhibition of Ca2+-induced mitochondrial ΔΨ loss (Rat liver mitochondria [1]): inhibited

Molecule: rΔ21: recombinant human Bcl-xL lacking the N-terminus 21 amino acids residues (BH4 deletion mutant)
- Inhibition of VDAC activity (VDAC-mediated sucrose uptake) (Rat liver VDAC; VDAC liposomes, 50 mM sucrose): did not affect
- Inhibition of Ca2+-induced cytochrome c release (Rat liver mitochondria [2]): did not virtually show inhibitory activity
- Inhibition of Ca2+-induced mitochondrial ΔΨ loss (Rat liver mitochondria [1]): did not virtually show inhibitory activity

Molecule: ΔFL: F12L13 mutant of human Bcl-xL BH4 polypeptide (FIG. 13) (SNRELVVDSYKLSQKGYS) [reference compound]
- Inhibition of VDAC activity (VDAC-mediated sucrose uptake) (Rat liver VDAC; VDAC liposomes, 50 mM sucrose): did not inhibit

Molecule: ΔLV: L8V9 mutant of human Bcl-xL BH4 polypeptide (FIG. 13) (SNREVDFLSYKLSQKGYS) [reference compound]
- Inhibition of VDAC activity (VDAC-mediated sucrose uptake) (Rat liver VDAC; VDAC liposomes, 50 mM sucrose): did not inhibit

Molecule: SNRELVVDFLSYKLSQKGYS [Human Bcl-xL BH4 polypeptide (amino acid nos: 4 to 23 of human Bcl-xL)]
- molar concentration needed to inhibit Ca2+-induced membrane potential loss and VDAC activity, relative to recombinant Bcl-xL [3]: ~25 fold
